Results: the supplement of paper PMC9112550, “Optimization of the antimicrobial peptide Bac7 by deep mutational scanning” (BMC Biology, 2022)

test system: Escherichia coli TOP10; test: shrunken log2 fold change of peptide-encoding DNA abundance (4.5 h post-induction vs induction); higher = less antimicrobial activity (less host growth inhibition); settings: time post-induction: 4.5 h; library: site-saturation at positions 5, 18, 19, 20
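Note: peptides expressed intracellularly from a pBAD plasmid library in pooled LB shake-flask culture, induced with 0.3% L-arabinose, DNA abundance read by NGS, three biological replicates, DESeq2 with apeglm shrinkage.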

Sequence	shrunken log2 fold change
RRIRMRPPRLPRPRPRPAGAPRP	1.28
RRIRWRPPRLPRPRPRPQFDPRP	0.0373
RRIRNRPPRLPRPRPRPQHAPRP	-0.0717
RRIRMRPPRLPRPRPRPEWHPRP	0.161
RRIRNRPPRLPRPRPRPQRIPRP	-0.47
RRIRARPPRLPRPRPRPKYFPRP	0.0918
RRIRDRPPRLPRPRPRPGQVPRP	0.203
RRIRLRPPRLPRPRPRPCVEPRP	-0.124
RRIRRRPPRLPRPRPRPVIYPRP	0.0526
RRIRIRPPRLPRPRPRPKFGPRP	0.0227
RRIRHRPPRLPRPRPRPIQQPRP	-0.15
RRIRPRPPRLPRPRPRPFDKPRP	-0.0386
RRIRMRPPRLPRPRPRPWLIPRP	0.0295
RRIRKRPPRLPRPRPRPANTPRP	-0.0533
RRIRKRPPRLPRPRPRPKIQPRP	0.113
RRIRNRPPRLPRPRPRPPQIPRP	0.013
RRIRMRPPRLPRPRPRPGLEPRP	1.61
RRIRIRPPRLPRPRPRPYMYPRP	-0.91
RRIRMRPPRLPRPRPRPRGNPRP	0.37
RRIRERPPRLPRPRPRPFYIPRP	-0.5
RRIRCRPPRLPRPRPRPIFKPRP	-0.323
RRIRNRPPRLPRPRPRPCRSPRP	-0.0607
RRIRLRPPRLPRPRPRPQFQPRP	-0.0476
RRIRLRPPRLPRPRPRPEMKPRP	-0.169
RRIRRRPPRLPRPRPRPHWLPRP	0.28

Sequence	shrunken log2 fold change
RRIRIRPPRLPRPRPRPNPCPRP	-0.159
RRIRTRPPRLPRPRPRPQSLPRP	-0.0105
RRIRTRPPRLPRPRPRPGDDPRP	0.24
RRIRDRPPRLPRPRPRPRHIPRP	-0.25
RRIRVRPPRLPRPRPRPPSCPRP	0.187
RRIRSRPPRLPRPRPRPMNCPRP	-0.0191
RRIRARPPRLPRPRPRPYYMPRP	-0.687
RRIRMRPPRLPRPRPRPIMHPRP	-0.128
RRIRQRPPRLPRPRPRPENNPRP	-0.331
RRIRDRPPRLPRPRPRPWRSPRP	0.105
RRIRCRPPRLPRPRPRPRMYPRP	-0.562
RRIRDRPPRLPRPRPRPVFNPRP	-0.353
RRIRVRPPRLPRPRPRPLRFPRP	0.571
RRIRWRPPRLPRPRPRPRDHPRP	0.526
RRIRIRPPRLPRPRPRPKYPPRP	-0.121
RRIRDRPPRLPRPRPRPCNEPRP	-0.0633
RRIRTRPPRLPRPRPRPFEEPRP	0.00896
RRIRERPPRLPRPRPRPERFPRP	-0.0509
RRIRMRPPRLPRPRPRPVNMPRP	-0.292
RRIRDRPPRLPRPRPRPAKKPRP	-0.00565
RRIRVRPPRLPRPRPRPINQPRP	-0.749
RRIRERPPRLPRPRPRPLGMPRP	-0.294
RRIRMRPPRLPRPRPRPFMEPRP	-0.096
RRIRIRPPRLPRPRPRPTWWPRP	0.0347
RRIRYRPPRLPRPRPRPVFFPRP	-0.367

Sequence	shrunken log2 fold change
RRIRHRPPRLPRPRPRPFDCPRP	-0.186
RRIRNRPPRLPRPRPRPNFTPRP	-0.197
RRIRIRPPRLPRPRPRPEQPPRP	0.307
RRIRWRPPRLPRPRPRPVHKPRP	0.0181
RRIRGRPPRLPRPRPRPNRYPRP	0.0443
RRIRHRPPRLPRPRPRPFIDPRP	-0.121
RRIRCRPPRLPRPRPRPLQIPRP	-0.213
RRIRDRPPRLPRPRPRPQMLPRP	0.269
RRIRGRPPRLPRPRPRPHEFPRP	0.144
RRIRERPPRLPRPRPRPTVPPRP	-0.237
RRIRFRPPRLPRPRPRPGVNPRP	0.0431
RRIRPRPPRLPRPRPRPQSKPRP	-0.237
RRIRPRPPRLPRPRPRPLPMPRP	0.53
RRIRPRPPRLPRPRPRPKNIPRP	-0.719
RRIRARPPRLPRPRPRPNLEPRP	0.0621
RRIRCRPPRLPRPRPRPDMHPRP	0.0405
RRIRHRPPRLPRPRPRPKERPRP	-0.0122
RRIRWRPPRLPRPRPRPADTPRP	0.0101
RRIRTRPPRLPRPRPRPEYYPRP	-0.855
RRIRDRPPRLPRPRPRPLHPPRP	0.286
RRIRHRPPRLPRPRPRPYGAPRP	-0.48
RRIRTRPPRLPRPRPRPVWAPRP	0.237
RRIRYRPPRLPRPRPRPIQPPRP	0.00143
RRIRQRPPRLPRPRPRPMKYPRP	-0.498
RRIRMRPPRLPRPRPRPYWHPRP	-0.305
